Test results published in patent publication US20170096495A1 (Hoffmann-La Roche, published 2017).
Substitutions are numbered along the chain they refer to. Like-named read-outs stand apart in the source and are kept apart here.

B1: STEAP-1 TCB Molecule F: "2+1 IgG CrossFab, inverted" with charge modifications (VH/VL exchange in CD3 binder, charge modification in STEAP-1 binders) (bispecific antibody)
heavy 1: EVQLVESGGGLVQPGGSLRLSCAVSGYSITSDYAWNWVRQAPGKGLEWVGYISNSGSTSYNPSLKSRFTISRDNSKNTLYLQMNSLRAEDTAVYYCARERNYDYDDYYYAMDYWGQGTLVTVSSASTKGPSVFPLAPSSKSTSGGTAALGCLVEDYFPEPVTVSWNSGALTSGVHTFPAVLQSSGLYSLSSVVTVPSSSLGTQTYICNVNHKPSNTKVDEKVEPKSCDKTHTCPPCPAPEAAGGPSVFLFPPKPKDTLMISRTPEVTCVVVDVSHEDPEVKFNWYVDGVEVHNAKTKPREEQYNSTYRVVSVLTVLHQDWLNGKEYKCKVSNKALGAPIEKTISKAKGQPREPQVCTLPPSRDELTKNQVSLSCAVKGFYPSDIAVEWESNGQPENNYKTTPPVLDSDGSFFLVSKLTVDKSRWQQGNVFSCSVMHEALHNHYTQKSLSLSP
heavy 2: not shown
light 1: DIQMTQSPSSLSASVGDRVTITCKSSQSLLYRSNQKNYLAWYQQKPGKAPKLLIYWASTRESGVPSRFSGSGSGTDFTLTISSLQPEDFATYYCQQYYNYPRTFGQGTKVEIKRTVAAPSVFIFPPSDRKLKSGTASVVCLLNNFYPREAKVQWKVDNALQSGNSQESVTEQDSKDSTYSLSSTLTLSKADYEKHKVYACEVTHQGLSSPVTKSFNRGEC
light 2: EVQLLESGGGLVQPGGSLRLSCAASGFTFSTYAMNWVRQAPGKGLEWVSRIRSKYNNYATYYADSVKGRFTISRDDSKNTLYLQMNSLRAEDTAVYYCVRHGNFGNSYVSWFAYWGQGTLVTVSSASVAAPSVFIFPPSDEQLKSGTASVVCLLNNFYPREAKVQWKVDNALQSGNSQESVTEQDSKDSTYSLSSTLTLSKADYEKHKVYACEVTHQGLSSPVTKSFNRGEC
B2: STEAP-1 TCB Molecule B: "2+1 IgG CrossFab, inverted" without charge modifications (VH/VL exchange in CD3 binder) (bispecific antibody)
light: B1 light 2
chain 1: B1 heavy 1 with N74T, E154K, E220K
chain 2: not shown
chain 3: not shown
B3: STEAP-1 TCB Molecule E: "1+1 IgG CrossMab" with charge modifications (VH/VL exchange in CD3 binder, charge modification in STEAP-1 binder) (bispecific antibody)
heavy 1: B1 heavy 1 with N74T
heavy 2: not shown
light 1: B1 light 1
light 2: B1 light 2
B4: STEAP-1 TCB Molecule C: "2+1 IgG CrossFab, inverted" with charge modifications (CH1/CL exchange in CD3 binder, charge modification in STEAP-1 binders) (bispecific antibody)
light: B1 light 1
heavy: B1 heavy 1 with N74T
chain 1: not shown
chain 2: QAVVTQEPSLTVSPGGTVTLTCGSSTGAVTTSNYANWVQEKPGQAFRGLIGGTNKRAPGTPARFSGSLLGGKAALTLSGAQPEDEAEYYCALWYSNLWVFGGGTKLTVLSSASTKGPSVFPLAPSSKSTSGGTAALGCLVKDYFPEPVTVSWNSGALTSGVHTFPAVLQSSGLYSLSSVVTVPSSSLGTQTYICNVNHKPSNTKVDKKVEPKSC
B5: STEAP-1 TCB Molecule A: "2+1 IgG CrossFab, inverted" with charge modifications (VH/VL exchange in CD3 binder, charge modification in STEAP-1 binders) (bispecific antibody)
heavy 1: not shown
heavy 2: B1 heavy 1 with N74T
light 1: B1 light 1
light 2: B1 light 2

What was measured:
[1] = molecular target: T1, human STEAP-1 (Six-transmembrane epithelial antigen of prostate 1) (human, UniProt Q9UHE8 1-339); test: cell-based or functional assay
[2] = molecular target: T1, human STEAP-1 (Six-transmembrane …); test: cell-based or functional assay; remark: listed apart in the source
[3] = molecular target: T1, human STEAP-1 (Six-transmembrane …); test: cell-based or functional assay; remark: listed apart in the source
[4] = molecular target: T1, human STEAP-1 (Six-transmembrane …); test: cell-based or functional assay; remark: listed apart in the source
human CD3 [5] = molecular target: T2, human CD3 (human, UniProt P07766 23-207); test: cell-based or functional assay
[6] = molecular target: T1, human STEAP-1 (Six-transmembrane …); test: cell-based or functional assay; remark: listed apart in the source
[7] = molecular target: T1, human STEAP-1 (Six-transmembrane …); test: cell-based or functional assay; remark: listed apart in the source
[8] = molecular target: T1, human STEAP-1 (Six-transmembrane …); test: cell-based or functional assay; remark: listed apart in the source
[9] = molecular target: T1, human STEAP-1 (Six-transmembrane …); test: flow cytometry on CHO-hSTEAP1 clone 2 cells, anti-human Fc secondary antibody
Method: The binding of STEAP-1 TCB molecules was tested, using STEAP-1-expressing CHO-hSTEAP1, clone 2 cells (an epithelial cell line derived from hamster ovary, that was transfected to stably overexpress human STEAP-1) and CD3-expressing immortalized T lymphocyte cells (Jurkat, DSMZ #ACC 282).
Briefly, adherent CHO-hSTEAP1 cells were harvested, using Cell Dissociation Buffer (Gibco, #13151014) counted, checked for viability and re-suspended at 2×10⁶ cells/ml in FACS buffer (100 μl PBS 0.1% BSA). Jurkat suspension cells were also harvested, counted and checked for viability. 100 μl of cell suspension (containing 0.2×10⁶ cells) were incubated in round-bottom 96-well plate for 30 min at 4° C. with increasing concentrations of the STEAP-1 TCB (31 pM-500 nM), washed twice with cold PBS containing 0.1% BSA (FACS buffer), re-incubated for further 30 min at 4° C. with the 1:50 pre-diluted FITC- or Alexa Fluor 647-conjugated AffiniPure F(ab′)2 Fragment goat-human IgG Fcg Fragment Specific secondary antibody (Jackson Immuno Research Lab, FITC #109-096-098, binding to Jurkats, or Jackson Immuno Research Lab, Alexa Fluor 647 #109-606-008, for binding to CHO-hSTEAP1, dilutions in FACS buffer) and washed twice with cold PBS 0.1% BSA. […] Staining was analyzed by FACS using a FACS Canto II (Software FACS Diva). […]

human CD3 [10] = molecular target: T2, human CD3; test: flow cytometry on Jurkat cells

T1 sequence (Q9UHE8 whole entry): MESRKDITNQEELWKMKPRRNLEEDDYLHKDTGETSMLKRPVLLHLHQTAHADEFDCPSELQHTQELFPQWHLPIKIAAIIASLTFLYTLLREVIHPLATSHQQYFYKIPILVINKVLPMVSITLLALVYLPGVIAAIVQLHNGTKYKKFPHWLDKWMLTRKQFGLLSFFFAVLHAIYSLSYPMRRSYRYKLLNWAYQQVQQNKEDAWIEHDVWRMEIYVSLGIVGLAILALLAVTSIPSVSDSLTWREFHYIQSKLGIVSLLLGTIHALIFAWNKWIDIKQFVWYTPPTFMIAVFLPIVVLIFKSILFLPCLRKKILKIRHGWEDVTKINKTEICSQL
T2 sequence (P07766 23-207 limits assumed): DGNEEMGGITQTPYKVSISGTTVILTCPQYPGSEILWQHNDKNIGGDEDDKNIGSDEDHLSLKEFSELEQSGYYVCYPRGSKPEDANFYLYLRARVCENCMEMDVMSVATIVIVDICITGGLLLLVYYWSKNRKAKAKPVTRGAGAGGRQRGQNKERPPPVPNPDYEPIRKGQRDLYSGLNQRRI

Row | Binder | EC50 [pM] 24 h, T-cell mediated killing of LnCAP cells (LDH release, human PBMCs, E:T 10:1) [1] [pM] | EC50 [pM] 24 h, T-cell mediated killing of MKN45 cells (LDH release, human PBMCs, E:T 10:1) [1] [pM] | EC50 [pM] 24 h, T-cell mediated lysis of LnCaP cells (LDH release) [2] [pM] | EC50 [pM] 48 h, T-cell mediated lysis of LnCaP cells (LDH release) [2] [pM] | EC50 [nM], activation of Jurkat-NFAT reporter cells (luminescence after 6 h) with LnCaP cells [3] [nM] | EC50 [pM] 24 h, STEAP-1 TCB-mediated lysis of LnCaP cells (LDH release) [4] [pM] | EC50 [pM] 48 h, STEAP-1 TCB-mediated lysis of LnCaP cells (LDH release) [4] [pM] | EC50 [nM], activation of Jurkat-NFAT reporter cells (luminescence after 6 h), presence of STEAP-1-negative CHO-K1 (human CD3 [5]) [nM] | EC50 [nM], activation of Jurkat-NFAT reporter cells (luminescence after 6 h), presence of CHO-hSTEAP1 [6] [nM] | EC50 (pM), activation of primary T cells with LnCaP cells, 48 h: % CD4 + CD25+ [7] [pM] | EC50 (pM), activation of primary T cells with LnCaP cells, 48 h: % CD4 + CD69+ [7] [pM] | EC50 (pM), activation of primary T cells with LnCaP cells, 48 h: % CD8 + CD25+ [7] [pM] | EC50 (pM), activation of primary T cells with LnCaP cells, 48 h: % CD8 + CD69+ [7] [pM] | EC50 [nM], activation of Jurkat-NFAT reporter cells (luminescence after 6 h), presence of CHO-hSTEAP1 [8] [nM] | EC50 [nM], activation of Jurkat-NFAT reporter cells (luminescence after 6 h), presence of LnCaP cells [8] [nM] | EC50 [9] [nM] | binding result (human CD3 [10])
1 | B1 | 100 | 1500 |  |  |  |  |  |  |  |  |  |  |  |  |  |  | 
2 | B2 |  |  | 95.7 | 22.9 | 5.73 |  |  |  |  |  |  |  |  |  |  |  | 
3 | B3 |  |  |  |  |  | 1860 | 1560 | 18.8 | 0.79 | 7960 | 4310 | 5060 | 588 | 0.51 | 0.054 |  | 
4 | B4 |  |  | 152 | 12.8 | 39.5 |  |  |  |  |  |  |  |  |  |  |  | 
5 | B5 |  |  | 36.8 | 31.4 | 3.58 | 13.7 | 6.35 |  | 0.1 | 447 | 300 | 271 | 124 | 7.19 | 1.36 | 20.2 | binds
